Experiments:
[1] = molecular target: BMP-9 receptors expressed on HepG2 cells (ATCC HB8065); experiment: Scatchard analysis of 125I-BMP-9 binding to HepG2 cells
[2] = molecular target: BMP-9 receptors expressed on HepG2 cells (ATCC HB8065); experiment: 125I-BMP-9 binding to HepG2 cells; the Kd told again in ng/ml
[3] = molecular target: BMP-9 receptors expressed on HepG2 cells (ATCC HB8065); experiment: Scatchard analysis; 2 ng/ml 125I-BMP-9 displaced by unlabelled BMP-9 on HepG2 cells, 20 hours at 4 C
[4] = molecular target: BMP-9 receptors expressed on HepG2 cells (ATCC HB8065)
[5] = molecular target: BMP-9 receptors expressed on HepG2 cells (ATCC HB8065); experiment: 125I-BMP-9 binding to HepG2 cells

B1: recombinant human BMP-9, CHO-derived (mature region of human BMP-9 expressed from the murine/human BMP-9 fusion plasmid) (ligand)
chain: TRECSRSCPRTAPQRQVRAVTRRTRMAHVAAGSTLARRKRSAGAGSHCQKTSLRVNFEDIGWDSWIIAPKEYEAYECKGGCFFPLADDVTPTKHAIVQTLVHLKFPTKVG
modifications: iodinated (125I) where used as the tracer; unlabelled where used as the competitor or in the proliferation assay
B1 showed a high affinity receptors per cell (receptors per cell) [1] of 10000, a Kd [2] of 8 ng/mL and a Kd [3] of 300 pM. The 3H-thymidine incorporation in HepG2 cells [4] was 5 fold, the ED50 of 3H-thymidine incorporation in HepG2 cells [4] was 10 ng/mL and the Kd [5] was 270 pM.
